Measurements reported in publication PMC13218722.
pKd: −log10 of the molar value.

Assays:
[1] = biological target: LFA-1 αI-Fc fusion protein (human) (UniProt P20701); test: BLI; LFA-1 αI immobilised on AR2G (amine reactive) sensor at 100 ng; PfGBP-130-N as analyte at increasing concentrations; 1× PBS pH 7.4; 25°C; 800 s; 1:1 binding model; Octet K2; n≥3
[2] = biological target: LFA-1 (CD11a/CD18) on THP-1 cells and primary human NK cells (human (endogenous in THP-1 and primary NK cells)) (UniProt P20701); test: flow cytometry on cells; THP-1 cells, with or without CD11a siRNA, fixed, incubated with 250 nM GBP130-Fc or 250 nM hIgG control in FACS buffer 2 hr; PE-Texas Red anti-human secondary antibody
[3] = biological target: LFA-1 (CD11a/CD18) on THP-1 cells and primary human NK cells (human (endogenous in THP-1 and primary NK cells)) (UniProt P20701)

LFA-1 (CD11a/CD18) on THP-1 cells and primary human NK cells (human (endogenous in THP-1 and primary NK cells)), sequence (P20701 26-1170, chain 1 of 2): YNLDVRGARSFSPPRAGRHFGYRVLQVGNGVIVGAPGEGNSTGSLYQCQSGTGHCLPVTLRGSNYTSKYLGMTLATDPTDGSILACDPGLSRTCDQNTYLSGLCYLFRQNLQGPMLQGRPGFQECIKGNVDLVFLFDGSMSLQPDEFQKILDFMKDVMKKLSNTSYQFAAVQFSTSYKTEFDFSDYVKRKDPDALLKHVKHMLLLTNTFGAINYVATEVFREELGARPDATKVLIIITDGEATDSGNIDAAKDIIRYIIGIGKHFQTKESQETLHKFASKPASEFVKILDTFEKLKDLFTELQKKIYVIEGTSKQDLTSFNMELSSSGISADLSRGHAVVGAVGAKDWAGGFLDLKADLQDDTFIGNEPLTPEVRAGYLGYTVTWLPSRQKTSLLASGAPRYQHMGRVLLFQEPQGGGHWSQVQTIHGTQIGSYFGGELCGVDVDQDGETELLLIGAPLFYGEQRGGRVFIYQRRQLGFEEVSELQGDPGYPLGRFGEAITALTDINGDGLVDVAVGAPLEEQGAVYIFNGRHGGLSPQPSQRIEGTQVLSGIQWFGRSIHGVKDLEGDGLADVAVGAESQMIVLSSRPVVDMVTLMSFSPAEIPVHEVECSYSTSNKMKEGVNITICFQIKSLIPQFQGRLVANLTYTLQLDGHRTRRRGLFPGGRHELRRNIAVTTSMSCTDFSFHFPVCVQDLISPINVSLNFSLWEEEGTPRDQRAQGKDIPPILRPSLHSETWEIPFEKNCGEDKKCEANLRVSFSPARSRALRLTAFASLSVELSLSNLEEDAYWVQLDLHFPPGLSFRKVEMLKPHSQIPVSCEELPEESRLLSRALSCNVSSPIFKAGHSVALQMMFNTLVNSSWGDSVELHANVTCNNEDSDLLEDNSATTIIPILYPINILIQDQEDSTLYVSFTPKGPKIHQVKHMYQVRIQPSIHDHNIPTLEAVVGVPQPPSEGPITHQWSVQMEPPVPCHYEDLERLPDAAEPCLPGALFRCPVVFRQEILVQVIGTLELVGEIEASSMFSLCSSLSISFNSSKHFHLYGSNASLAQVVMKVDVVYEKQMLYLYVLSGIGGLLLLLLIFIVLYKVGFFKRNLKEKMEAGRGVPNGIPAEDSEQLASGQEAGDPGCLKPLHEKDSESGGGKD
LFA-1 (CD11a/CD18) on THP-1 cells and primary human NK cells (human (endogenous in THP-1 and primary NK cells)), sequence (P05107 23-769, chain 2 of 2, further chain): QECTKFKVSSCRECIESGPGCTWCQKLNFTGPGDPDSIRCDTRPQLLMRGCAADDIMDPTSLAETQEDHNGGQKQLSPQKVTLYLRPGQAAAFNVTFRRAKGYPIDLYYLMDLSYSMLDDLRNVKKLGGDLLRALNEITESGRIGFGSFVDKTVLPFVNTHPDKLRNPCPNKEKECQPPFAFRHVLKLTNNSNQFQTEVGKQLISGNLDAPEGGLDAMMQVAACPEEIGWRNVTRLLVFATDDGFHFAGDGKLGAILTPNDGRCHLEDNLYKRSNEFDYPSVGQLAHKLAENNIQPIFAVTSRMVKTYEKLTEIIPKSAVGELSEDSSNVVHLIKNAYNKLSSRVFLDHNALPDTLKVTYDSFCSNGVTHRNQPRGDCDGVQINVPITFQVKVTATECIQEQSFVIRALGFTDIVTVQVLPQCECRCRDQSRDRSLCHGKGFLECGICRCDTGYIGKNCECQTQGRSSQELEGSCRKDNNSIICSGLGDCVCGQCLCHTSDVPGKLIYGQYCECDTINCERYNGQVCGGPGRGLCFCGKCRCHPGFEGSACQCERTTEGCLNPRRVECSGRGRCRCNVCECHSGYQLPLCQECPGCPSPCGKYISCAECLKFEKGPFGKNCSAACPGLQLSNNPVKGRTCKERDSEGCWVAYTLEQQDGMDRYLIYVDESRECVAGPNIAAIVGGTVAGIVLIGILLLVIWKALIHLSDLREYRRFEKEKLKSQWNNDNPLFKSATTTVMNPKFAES
PfGBP-130-N (N-terminal fragment of PfGBP-130, aa 69-270) (domain or fragment), sequence (Q8I6U8 69-270): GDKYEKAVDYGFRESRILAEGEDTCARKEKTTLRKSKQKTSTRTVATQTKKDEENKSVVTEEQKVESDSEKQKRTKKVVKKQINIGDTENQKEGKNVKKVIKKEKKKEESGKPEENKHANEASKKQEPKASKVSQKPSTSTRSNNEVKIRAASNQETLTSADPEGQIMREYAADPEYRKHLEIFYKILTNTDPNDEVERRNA
LFA-1 αI-Fc fusion protein (human), sequence (P20701 153-335): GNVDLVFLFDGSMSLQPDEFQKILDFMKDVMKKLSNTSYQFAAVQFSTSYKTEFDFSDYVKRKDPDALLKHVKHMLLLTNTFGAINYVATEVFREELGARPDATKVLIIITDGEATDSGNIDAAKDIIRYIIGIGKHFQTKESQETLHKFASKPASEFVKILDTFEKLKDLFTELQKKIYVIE

PfGBP-130-N (N-terminal fragment of PfGBP-130, aa 69-270) (domain or fragment)
pKd [1]: 7.77

PfGBP-130 ECD-Fc (extracellular domain of PfGBP-130 fused to the Fc region of human IgG1) (Fc fusion)
fold increase in binding over hIgG isotype control (THP-1 cells) [2]: 3 fold

PfGBP-130 extracellular domain fused to the transmembrane domain of transferrin receptor (TfR-TM), on CHO K1 cells
CD25 expression on primary human NK cells co-cultured 24 hr with CHO-PfGBP-ECD (2:1, Poly I:C/Lipofectamine 2000) compared to mock CHO cells, flow cytometry; reduced by anti-CD11a (HI111) [3]: 40%
CD69 expression on primary human NK cells co-cultured 24 hr with CHO-PfGBP-ECD (2:1, Poly I:C/Lipofectamine 2000) compared to mock CHO cells, flow cytometry; reduced by anti-CD11a (HI111) [3]: 50%
